In patent US20050148516:

Test system: heparan sulfate proteoglycan (HSPG) on HUVEC

GnT-VΔ188
amount of FGF-2 released from HSPG on HUVEC (FGF-2 ELISA of the supernatant, 4 °C): Like GnT-VΔ73, also GnT-VΔ188 and GnT-VΔ233 released FGF-2

GnT-VΔ73
amount of FGF-2 released from HSPG on HUVEC (FGF-2 ELISA of the supernatant, 4 °C): GnT-VΔ73 and KRKRKK peptide released FGF-2
